Measured values published in the supplement of paper PMC12764529.
± gives the half width of the 95% confidence interval.

Experiments:
[1] = folding stability dG unfold (combined trypsin and chymotrypsin); higher = more stable
Summary of the method: (§1)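 Unfolding free energy was derived, per protease or combined, by relating Bayesian-fitted K50 values from sequencing counts to a sequence-predicted unfolded-state K50 and a shared folded-state K50. The underlying digests exposed cysteine-free mini-proteins under 80 residues, in a PA-tagged cDNA display construct, to trypsin and chymotrypsin at 11 threefold-diluted concentrations and to a no-protease condition. A filter kept only designs with AlphaFold2 dimer inter-PAE above 15.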

[2] = folding stability dG unfold from trypsin proteolysis; higher = more stable
Summary of the method: as §1

[3] = folding stability dG unfold from chymotrypsin proteolysis; higher = more stable
Summary of the method: as §1

Sequence | folding stability dG unfold [1] [kcal/mol] | folding stability dG unfold [2] [kcal/mol] | folding stability dG unfold [3] [kcal/mol]
SAGAAPVGARLVKVEPLPGDGPFVLVEVTPPDGKPGFILVPWEFFESGYLKNATAADIAKRFPFAKPASAGG [r19_74_TrMRF] | 1.49 ± 0.056 | 0.513 ± 0.019 | 1.85 ± 0.028
SAGGEIEVEVLEVDPETGEVLLKITFDAEPEVIDFLVSLGFDPEHISDDGDGKVTAIVRAPPDLTIASAGGS [r16_755_TrMRF] | 2.79 ± 0.09 | 2.21 ± 0.087 | 3.02 ± 0.061
SAGGSAGGMEIRVERDPESDLLVAELKIDGHDAIAVFDPNRPGHIEIGTTNEIPIEEIIDALLSSAGGSAGG [r6_195_TrMRF] | 0.152 ± 0.37 | 0.683 ± 0.038 | -0.08 ± 0.32
SAGGKMTLKDIEIIEVIEKDGEIEVVLIRNKKTNKVIAIPREDLEKLLSLPEDVEVVRLRIKPGEKLSAGGS [r16_61_TrROS_Hall] | 1.32 ± 0.18 | 1.3 ± 0.07 | 1.34 ± 0.15
SMSLTIPEELIEAIKKALEELEPGEEVTITYNLPDGSVITVKVVGKGEVTITVYSSPDSQTQTYTFEIKESA [r9_132_JUSTAS] | 3.25 ± 0.069 | 3.15 ± 0.061 | 3.313 ± 0.023
SAGGSVEELRELARKLAEELGLEVVEVEVEEREDGKVTVTVTIKGPPKVEIKLEVTENEVKITEIKPSAGGS [r8_432_TrROS_Hall] | 3.42 ± 0.23 | 3.36 ± 0.25 | 3.35 ± 0.26
SAGGSAGGSAGMTVTETPVLVRYPEDGSVRPFTLTTSPEPGTLTLDLPPAEWPPLEITPPGSAGGSAGGSAG [r3_454_JUSTAS] | -0.324 ± 0.17 | -0.0964 ± 0.12 | -0.486 ± 0.33
SAGGSAGGSALDPSAPYVVLIDIDIEPEKAEVEKIPGIPKYIVKKIDLKITIKIEIVSAKDASAGGSAGGSA [r18_137_TrMRF] | 2.84 ± 0.08 | 2.28 ± 0.17 | 3.14 ± 0.087
SAGGSAGGSAGAEELAKALAEELNVEVEVEVVEVEEPEVEVTEERRLPPAPEEVTIEEDESAGGSAGGSAGG [r11_753_TrROS_Hall] | 0.939 ± 0.12 | -0.129 ± 0.074 | 1.32 ± 0.092
SAGGSAGGSAGGMIVLKDPDPARLEARAEELRAELEAAGRELPPDVEIEVLEAEPDPALLSAGGSAGGSAGG [r7_965_JUSTAS] | -0.279 ± 0.29 | -0.194 ± 0.21 | -0.568 ± 0.37
SAGGSAGGSAGGFYDPNGKWRIKIKPEVFEFPNYRFIKMKIEVDGRPIMEMPMLIPPNDSAGGSAGGSAGGS [r10_628_TrROS] | 2.73 ± 0.34 | 3.41 ± 0.31 | 2.45 ± 0.16
KGVVVGPDEPLVSDDGKLVVFPNAQITYDPKTGKPTIAFHVDPEALAQGDPEALKGLRDLAKELNIDELTPS [r1_438_TrMRF] | 0.692 ± 0.12 | -0.156 ± 0.1 | 1.03 ± 0.044
SAKITKIEINEDGTLTITIEVELPEGMEADELVIFVEVDGKIYEATIKKDGTVEIKLKNIKDLKIYIFKKSA [r9_722_TrROS_Hall] | 4.95 ± 0.16 | 3.87 ± 0.28 | 5.04 ± 0.12
SAGGPPGDPILLRISYTIRPNGKERTMDHEIPFKNPNQPITLEQIRKELRDALPPGYKITDVEIDVLSAGGS [r16_407_TrROS] | 0.444 ± 0.1 | 0.364 ± 0.069 | 0.276 ± 0.16
SAGGMKIEIKIIDEETGEEITITVTMTPEEIEKLAKELEEKYPGLEIVSVEIEEKDGEIIITIKIKKKSAGG [r13_196_TrROS_Hall] | 3.29 ± 0.21 | 3.75 ± 0.25 | 2.71 ± 0.071
SAGGETLEVKLKNGYLLRIDLETGKVEVRPLKPVKIELKIEVKPPPVEVKLEKEIKLEKKIEVKVEFSAGGS [r16_453_TrROS_Hall] | 2.15 ± 0.18 | 1.82 ± 0.19 | 2.51 ± 0.062
SAGMTVEELRNLPPGYRVLEVKFDPETGKYTVVVERPDEDGVPHKVTIEVDGLEELEEFFKTGLTELKLSAG [r5_905_TrMRF] | 1.35 ± 0.16 | 1.73 ± 0.045 | 0.897 ± 0.1
SAGGMPPVVTEHTVELNPPASATLEDVRAAAEEVAAAIRAAAPEAGVAEVTFTVDPSRGTVTITVTRPSAGG [r13_1011_JUSTAS] | 0.442 ± 0.043 | 0.985 ± 0.018 | -0.925 ± 0.15
SAGGSAGGSKKPIDIKIEDVDHRRNPNGQPYMKIRIEIPGKPLLSYTFPPGASVEDFLKNILSSAGGSAGGS [r20_115_TrROS] | 1.09 ± 0.057 | 1.1 ± 0.033 | 0.96 ± 0.1
SAGGDLLKELARELGFNVEIERDPDDGTIRITIRPPEGHYVTITIKIDYDPENGKLKLEIDEIKVSPPSAGG [r13_936_TrROS] | 3.7 ± 0.17 | 3.68 ± 0.17 | 3.63 ± 0.14
SAGGSAGGSAPNLKLKIKLDIHVFPDGWLYVSTKIEIENPGKPVEFTIMFRFPIPPNEPAPSAGGSAGGSAG [r3_383_TrROS] | 5.16 ± 0.27 | 3.85 ± 0.27 | 5.35 ± 0.15
